In patent US20230382992A1:

Experiments:
[1] = biological target: mouse TIM3 on cells (mouse) (UniProt Q8VIM0); experiment: binding to activated mouse T cells, compared with TIM3.18 on human TIM-3
[2] = biological target: mouse TIM3 on cells (mouse) (UniProt Q8VIM0); experiment: binding to activated mouse T cells (method not described)

Sequence of mouse TIM3 on cells (mouse) (Q8VIM0 20-281): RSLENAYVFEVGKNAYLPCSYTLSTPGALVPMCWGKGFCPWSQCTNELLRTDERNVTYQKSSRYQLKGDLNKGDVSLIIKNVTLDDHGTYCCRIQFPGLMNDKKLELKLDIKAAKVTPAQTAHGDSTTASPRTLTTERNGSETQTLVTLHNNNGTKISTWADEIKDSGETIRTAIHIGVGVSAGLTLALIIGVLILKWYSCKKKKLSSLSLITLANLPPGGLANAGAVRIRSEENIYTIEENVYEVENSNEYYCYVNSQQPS

RMT3-23 rat anti-mouse TIM-3 antibody (Bio-X-Cell)
fold weaker EC50 than TIM3.18 on human TIM-3 [1]: 17 fold | EC50 [2]: 1.7 nM
